Results: patent publication US20140135482A1 (Hoffmann-La Roche, published 2014)
One block for each binder: values may come before it.

Experiments:
human ErbB-3 (on cells) [1] = biological target: T1, human ErbB-3 (on cells) (human, UniProt P21860 20-1342); experiment: cell-based or functional assay
human ErbB-3 (on cells) [2] = biological target: T1, human ErbB-3 (on cells); experiment: flow cytometry on A431 cells, dilution series of the bispecific antibody in the presence of Fab 5D5 (its concentration is not given on the sheet), detected with PE-coupled anti-human Fc antibody
human ErbB-3 (on cells) [3] = biological target: T1, human ErbB-3 (on cells); experiment: flow cytometry on A431 cells, dilution series of the antibody, detected with PE-coupled anti-human Fc antibody
Description: (§1) A431 were detached and counted. 1.5×10e5 cells were seeded per well of a conical 96-well plate. Cells were spun down (1500 rpm, 4° C., 5 min) and incubated for 30 min on ice in 50 μL of a dilution series of the respective bispecific antibody in PBS with 2% FCS (fetal calf serum). Cells were again spun down and washed once with 200 μL PBS containing 2% FCS followed by a second incubation of 30 min with a phycoerythrin-coupled antibody directed against human Fc which was diluted in PBS containing 2% FCS (Jackson Immunoresearch, 109116098). Cells were spun down washed twice with 200 μL PBS containing 2% FCS, resuspended in BD CellFix solution (BD Biosciences) and incubated for at least 10 min on ice. Mean fluorescence intensity (mfi) of the cells was determined by flow cytometry (FACS Canto, BD). Mfi was determined at least in duplicates of two independent stainings Flow cytometry spectra were further processed using the FlowJo software (TreeStar). Half-maximal binding was determined using XLFit 4.0 (IDBS) and the dose response one site model 205.
(§2) The binding properties of the bispecific antibodies to their respective receptor on the cell surface was analyzed on A431 cancer cells in a flow cytometry based assay. Cells were incubated with the mono- or bispecific primary antibodies and binding of these antibodies to their cognate receptors was detected with a secondary antibody coupled to a fluorophor binding specifically to the Fc of the primary antibody. The mean fluorescence intensity of a dilution series of the primary antibodies was plotted against the concentration of the antibody to obtain a sigmoidal binding curve.

[4] = biological target: T2, recombinant c-Met ectodomain (ECD) (human, UniProt P08581 25-932); experiment: SPR (Biacore T100), antibody captured by anti-Fc gamma antibody, ECD in solution, 25 C
T2 construct: the whole entry for human c-Met is named; also called c-Met ECD

[5] = biological target: T3, recombinant Her3 ectodomain (ECD) (human, UniProt P21860 20-643); experiment: as above
T3 construct: the whole entry for human ErbB-3 is named; also called human HER3 ECD

human c-Met (on cells) = biological target: T4, human c-Met (on cells) (human, UniProt P08581 25-1390); experiment: flow cytometry on A431 cells, dilution series of the antibody, detected with PE-coupled anti-human Fc antibody
T4 construct: Endogenous receptor on human cell lines (A431, A549, HT29, DU145, HUVEC); also called c-Met receptor
Description: as §1, §2

% ErbB3 receptor on A431 cell surface measured after 2 h (human ErbB-3 (on cells) [1]): 94%
% Internalization of ErbB3 after 2 h on A431 cells (human ErbB-3 (on cells) [1]): 6%
B1: <ErbB3-c-Met> Her3/Met_6C (bispecific antibody, human IgG1, kappa)
heavy 1: not shown
heavy 2: not shown
light: DIQMTQTTSSLSASLGDRVTISCRARQDISNYLNWYQRKPDGTVKLLIYYTSRLHSGVPSRFSGSGSGTDYSLTISNLEQEDIATYFCQQGNTFPWTFGGGTKLEIKRTVAAPSVFIFPPSDEQLKSGTASVVCLLNNFYPREAKVQWKVDNALQSGNSQESVTEQDSKDSTYSLSSTLTLSKADYEKHKVYACEVTHQGLSSPVTKSFNRGEC

EC50 (read off the curve) (human ErbB-3 (on cells) [2]): ~0.06 µg/mL
B2: <ErbB3-c-Met> Her3/Me_scFvSSKH (bispecific antibody, human IgG1, kappa)
heavy 1: not shown
heavy 2: not shown
light: B1 light

binding result (human ErbB-3 (on cells) [3]): binds
B3: <ErbB3-c-Met> Her3/Met_KHSS (bispecific antibody, human IgG1, kappa)
heavy 1: not shown
heavy 2: not shown
light: B1 light
notes: also called Her3/c-Met KHSS

% ErbB3 receptor on A431 cell surface measured after 2 h (human ErbB-3 (on cells) [1]): 89%
% Internalization of ErbB3 after 2 h on A431 cells (human ErbB-3 (on cells) [1]): 11%
B4: <ErbB3-c-Met> Her3/Met_SSKH (bispecific antibody, human IgG1, kappa)
heavy 1: not shown
heavy 2: not shown
light: B1 light

Kd [4]: 0.8 nM
Kd [5]: 1.8 nM
B5: MH_TvAB21 (bispecific antibody)
chain 1: not shown
chain 2: not shown
chain 3: DIVMTQSPSSLTVTAGENVTMSCKSSQSLLNSGNQKNYLTWYQQKPGQPPKLLIYWASTRESGVPNRFTGSGSGTDFTLAISSVQAEDLSIYYCQSDYSYPYTFGQGTKLEIKRTVAAPSVFIFPPSDEQLKSGTASVVCLLNNFYPREAKVQWKVDNALQSGNSQESVTEQDSKDSTYSLSSTLTLSKADYEKHKVYACEVTHQGLSSPVTKSFNRGEC

Kd [4]: 0.9 nM
Kd [5]: 2.1 nM
B6: MH_TvAB22 (bispecific antibody)
chain 1: not shown
chain 2: not shown
chain 3: B5 chain 3

% ErbB3 receptor on A431 cell surface measured after 2 h (human ErbB-3 (on cells) [1]): 44%
% Internalization of ErbB3 after 2 h on A431 cells (human ErbB-3 (on cells) [1]): 54%
EC50 (read off the curve) (human ErbB-3 (on cells) [3]): ~0.03 µg/mL
B7: <ErbB3> HER3 clone 29 (antibody, human IgG1, kappa, V domains shown)
VH: DVQLQESGPGLVKPSQSLSLTCSVTGYSITSAYYWNWIRQFPGNKLEWMGYISYGGSNSYAPSLKNRFSITRDTSKNQFFLKLNSVTTEDTATYYCARESDYAYFDYWGQGTTLTVSS
VL: DIQMTQTTSSLSASLGDRVTISCRARQDISNYLNWYQRKPDGTVKLLIYYTSRLHSGVPSRFSGSGSGTDYSLTISNLEQEDIATYFCQQGNTFPWTFGGGTKLEIKR
notes: Monospecific bivalent parent antibody (chimeric)

EC50 (read off the curve) (human c-Met (on cells)): ~0.06 µg/mL
B8: <c-Met> Mab 5D5 (antibody, human IgG1, kappa, V domains shown)
VH: EVQLVESGGGLVQPGGSLRLSCAASGYTFTSYWLHWVRQAPGKGLEWVGMIDPSNSDTRFNPNFKDRFTISADTSKNTAYLQMNSLRAEDTAVYYCATYRSYVTPLDYWGQGTLVTVSS
VL: DIQMTQSPSSLSASVGDRVTITCKSSQSLLYTSSQKNYLAWYQQKPGKAPKLLIYWASTRESGVPSRFSGSGSGTDFTLTISSLQPEDFATYYCQQYYAYPWTFGQGTKVEIKR
notes: Monospecific, bivalent c-Met parent antibody (humanized); also called c-Met 5D5; bivalent 5D5

% ErbB3 receptor on A431 cell surface measured after 2 h (human ErbB-3 (on cells) [1]): 60%
% Internalization of ErbB3 after 2 h on A431 cells (human ErbB-3 (on cells) [1]): 40%
B9: <ErbB3> Mab 205 (chimeric) (antibody, V domains shown)
VH: QGQMQQSGAELVKPGASVKLSCKTSGFTFRSSYISWLKQKPRQSLEWIAWIYAGTGSPSYNQKFTGKAQLTVDTSSSTAYMQLSSLTSEDSAIYYCARHRDYYSNSLTYWGQGTLVTVSA
VL: DIVMTQSPSSLTVTAGENVTMSCKSSQSLLNSGNQKNYLTWYQQKPGQPPKLLIYWASTRESGVPNRFTGSGSGTDFTLAISSVQAEDLSIYYCQSDYSYPYTFGQGTKLEIK
